Measured values reported in patent US20200199236A1.

Assays:
FcγRIIIa 158V = FcγRIIIa 158V (UniProt P08637); experiment: biosensor with SA sensor, biotin-FcγRIIIa 158V loaded, antibody in solution (7 concentrations, 2x gradient from 500 nM)
FcγRIIIa 158F = FcγRIIIa 158F (UniProt P08637); experiment: biosensor with SA sensor, biotin-FcγRIIIa 158F loaded, antibody in solution
Sequence of FcγRIIIa 158F (P08637 17-208 limits assumed): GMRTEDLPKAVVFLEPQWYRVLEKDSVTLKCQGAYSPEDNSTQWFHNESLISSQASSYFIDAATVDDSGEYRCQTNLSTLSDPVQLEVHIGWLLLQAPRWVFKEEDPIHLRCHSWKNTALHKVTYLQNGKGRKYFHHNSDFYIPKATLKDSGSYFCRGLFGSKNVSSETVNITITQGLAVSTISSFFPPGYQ

Sequence of FcγRIIIa 158V (P08637 17-208 F176V): as the sequence (P08637 17-208 limits assumed) above, with F160V counted along it

Obinutuzumab (antibody) was tested, and the Kd (FcγRIIIa 158V) was 36.8 nM and the Kd (FcγRIIIa 158F) was 226 nM.
